The test system of data set [1] is C57BL/6 DIO mice. The data set is described as follows: Chronic treatment of DIO mice with anti-GIPR 2.63.1 in combination with Liraglutide, Dulaglutide or Exendin IV. Type of data set: in vivo, mouse. The conditions noted are these: 2.63.1 25 mg/kg once a week, Dulaglutide 1 mg/kg twice a week, Liraglutide 0.3 mg/kg once a day, Exendin IV 0.01 mg/kg once a day, i.p. The procedure: Male C57BL/6 DIO mice were purchased from Jackson laboratory. Mice were singly housed and continued on high fat diet (60 kcal % fat, Research diet) after arrival. […] All treatments were administrated intraperitoneally. Blood samples were collected from tail vein or cardiac puncture at termination. Serum insulin levels were determined by using mouse high range insulin ELISA (ALPCO Diagnostics). The triglyceride levels were measured using an infinity triglyceride assay kit (Thermo Scientific). Total cholesterol was measured using an infinity total cholesterol kit (Thermo Scientific). Body composition was determined using the minispec whole body composition analyzer (Bruker). For oral glucose tolerance test, mice were fasted for 4 h. Glucose levels were measured and blood samples were taken from the tail vein before the OGTT was initiated. A bolus of glucose (2 g/kg) was given orally by a gavage needle. Glucose levels were measured at 15, 30 and 60 min after glucose administration using a glucose meter (Abbott).

The conditions of data set [2]: rapid degradation by the DPP-IV enzyme; cited from earlier work.
In the next data set the test system is C57BL/6 DIO male mice. Nature of the data set: Anti-GIPR 2.63.1 treatment in DIO mice pre-treated with Liraglutide (two-phase study). In kind it is in vivo, mouse. The conditions noted are these: Liraglutide 0.05 or 0.3 mg/kg daily for 2 weeks, then 2.63.1 25 mg/kg weekly added. An excerpt:
FIG. 41 provides an overview of the study used to determine the effects of chronic treatment of diet induced obese (DIO) mice pre-treated with Liragutide with the mouse anti-mouse GIPR Ab (2.63.1). C57BL/6 DIO male mice (17 week old) fed Research Diets D12492 (60% kcal fat) for 13 weeks were randomized into groups. During phase 1 (pre-treatment phase), animals were intraperitoneally dosed daily for 2 weeks with either 1) saline (0.9% sodium chloride), 2) Liraglutide (BAChem #H-6724-0005) at 0.05 mg/kg, 3) Liraglutide at 0.3 mg/kg, or 4) Liraglutide 0.3 mg/kg in combination with a weekly dose of mouse anti-mouse GIPR Ab (2.63.1) in vehicle (10 mM acetate, 9% sucrose, pH 5.2) at 25 mg/kg;ll other groups (1-3) received a weekly dose of vehicle. During phase 2 (experimental stage) mouse anti-mouse GIPR Ab (2.63.1) treatment was initiated in the animals pre-treated with Liraglutide. Blood glucose levels were measured from retro orbital sinus using a glucose meter (Abbott) after mice were fasted for 4 hours before phase 1, end of phase 1, and at the end of the experiment. Insulin levels were determined using mouse high range insulin ELISA (ALPCO Diagnostics). […] Plasma was analyzed on the Olympus chemistry analyzer for liver enzymes, cholesterol, triglycerides, and NEFA. Plasma was analyzed in mouse metabolism multiplex assay (MMHMAG-44K—EMD Millipore) for mouse hormones.

The subject of data set [3] is high fat diet (HFD)-induced obese C57BL/6 mice. The data set is described as follows: Mouse pharmacodynamic assay (IPGTT following exogenous [D-Ala2]-GIP) to test anti-murine GIPR antibody 2.63.1. In kind it is in vivo. The following applies: antibody i.p. the day before IPGTT, [D-Ala2]-GIP 50 nmol/kg i.p. The procedure:
FIG. 1 provides an overview of the pharmacodynamics assay to test anti-murine GIPR antibodies. Seven week old male high fat diet (HFD)-induced obese C57BL/6 mice were purchased from Jackson Labs. After arrival, mice were continued on high fat diet with Research Diets D12492 (60 kcal % fat) (Research diet) for one to two weeks. Mice were randomized by body weight and were administrated intraperitoneally with testing GIPR antibody or vehicle (10 mM acetate, 150 mM NaCl, pH 5.0) the day before intraperitoneal glucose tolerance test (IPGTT). Mice were fasted for 7 hours and IPGTT was performed immediately following exogenous GIP [D-Ala2]-GIP (50 nmol/kg, Phoenix Pharmaceuticals) given intraperitoneally. Blood samples were taken from tail nick at the times indicated. Glucose was measured using AlphaTrak blood glucose meter (Abbott). Blood insulin level was determined by using Insulin (mouse) ultra-sensitive EIA kit (ALPCO Diagnostics). […] 2.63.1 comprises a light chain with the following sequence: […]

For data set [4], the system named is C57BL/6 DIO mice. The data set is described as follows: Chronic treatment of diet induced obese mice with GIPR antibody 2.63.1. In kind it is in vivo, mouse. The conditions noted are these: twice a week i.p. for 6 weeks. The procedure: FIG. 3 provides an overview of the study used to determine the effects of chronic treatment of diet induced obese (DIO) mice with the 2.63.1 antibody. 18 week old male C57BL/6 DIO mice fed Research Diets D12492 (60 kcal % fat) were randomized into groups. Treatments were given twice a week intraperitoneally for 6 weeks. Blood glucose levels were measured from tail nick using a glucose meter (Abbott) after mice were fasted for 4 hours. Insulin levels were determined using mouse high range insulin ELISA (ALPCO Diagnostics). Triglyceride levels were measured using an Infinity triglyceride assay kit (Thermo Scientific). Total cholesterol was measured using an Infinity total cholesterol kit (Thermo Scientific). Body composition was determined using the minispec whole body composition analyzer (Bruker).
For intraperitoneal glucose tolerance test (IPGTT), mice were fasted for 4 hours. Glucose levels were measured and blood samples were taken from the tail vein before IPGTT was initiated. IPGTT was performed by intraperitoneal injection of glucose (1 g/kg body weight). Glucose levels were measured at 20, 40 and 60 minutes after glucose administration by using a glucose meter (Abbott). FIG. 4.
At termination, liver and epididymal fat was isolated and weighed using a balance. One piece of each tissue was fixed in 10% buffered formalin for 24 hours.

The subject of data set [5] is C57BL/6 DIO mice. The data set is described as follows: Chronic treatment of DIO mice with anti-GIPR 2.63.1 in combination with Liraglutide. Type of data set: in vivo, mouse. The following applies: 2.63.1 30 mg/kg twice a week, Liraglutide 0.3 mg/kg once a day, i.p. How it is done:
FIG. 24 provides an overview of the study used to determine the effects of chronic treatment of diet induced obese (DIO) mice with the mouse anti-mouse GIPR Ab (2.63.1) in combination with the GLP-1R agonist Liraglutide. Male C57BL/6 DIO mice were purchased from Jackson laboratory. Mice were single housed and continued on high fat diet (60 kcal % fat, Research Diets). Mice at 35 weeks old were randomized into groups and received one of the following treatments: A: vehicle (10 mM acetate, 9% sucrose, pH 5.2, and saline); B: 2.63.1 (30 mg/kg, twice a week); C: Liraglutide (0.3 mg/kg, once a day) and D: 2.63.1 (30 mg/kg, twice a week) and Liraglutide (0.3 mg/kg, once a day). All treatments were administrated intraperitoneally.
Blood samples were collected from tail vein or cardiac puncture at termination. Serum insulin levels were determined by using mouse high range insulin ELISA (ALPCO Diagnostics). Serum leptin levels were measured using mouse and rat leptin ELISA kit from BioVendor. The triglyceride levels were measured using an infinity triglyceride assay kit (Thermo Scientific). Total cholesterol was measured using an infinity total cholesterol kit (Thermo Scientific). At termination, liver, epididymal fat and inguinal fat were isolated and weighed using a balance.
Body composition was determined using the minispec whole body composition analyzer (Bruker).
For the oral glucose tolerance test (OGTT), mice were fasted for 4 hours. Glucose levels were measured and blood samples were taken from the tail vein before the OGTT was initiated. A bolus of glucose (2 g/kg) was given orally by a gavage needle. Glucose levels were measured at 15, 30 and 60 min after glucose administration using a glucose meter (Abbott).

For “Dulaglutide: GLP1R agonist; also known LY2189265, Eli Lilly and Company [reference compound]”, in the data set with C57BL/6 DIO mice [1], the “effect on fat mass loss of the combination GIPR Ab 2.63.1 with GLP-1R agonist (Liraglutide, Dulaglutide or Exendin IV)” value is “synergistic effect” and the “effect on weight loss of the combination GIPR Ab 2.63.1 with GLP-1R agonist (Liraglutide, Dulaglutide or Exendin IV)” value is given as “synergistic effect”.
In the case of “GLP-1: 31-amino acid peptide derived from the proglucagon gene”, the half-life entry in data set [2] is recorded as “approximately 2 minutes”.

B1: 2.63.1: anti-murine GIPR antibody; light chain SEQ ID NO: 3161, heavy chain SEQ ID NO: 3162 (antibody)
heavy: MGWSYIILFLVATATDVHSQVQLQQPGAELVKPGASVKLSCRASGYTFTSNWMHWVKQRPRQGLEWIGEINPSNGRSNYNEKFKTKATLTVDKSSSTAYMQLSSLTSEDSAVYYCARFYYGTSWFAYWGQGTLVAVSAAKTTPPSVYPLAPGSAAQTNSMVTLGCLVKGYFPEPVTVTWNSGSLSSGVHTFPAVLQSDLYTLSSSVTVPSSTWPSETVTCNVAHPASSTKVDKKIVPRDCGCKPCICTVPEVSSVFIFPPKPKDVLTITLTPKVTCVVVDISKDDPEVQFSWFVDDVEVHTAQTQPREEQFASTFRSVSELPIMHQDWLNGKEFKCRVNSAAFPAPIEKTISKTKGRPKAPQVYTIPPPKEQMAKDKVSLTCMITDFFPEDITVEWQWNGQPAENYKNTQPIMDTDGSYFVYSKLNVQKSNWEAGNTFTCSVLHEGLHNHHTEKSLSHSPGK
light: MKLPVRLLVLMFWIPASSSDVVMTQTPLSLPVSLGDQASISCRSSQSLVHSNGDTYLHWYLQKPGQSPKLLIYKVSNRFSGVPDRFSGSGSGTDFTLKISRVEAADLGVYFCSQSTHVPPFTFGGGTKLEIKRADAAPTVSIFPPSSEQLTSGGASVVCFLNNFYPKDINVKWKIDGSERQNGVLNSWTDQDSKDSTYSMSSTLTLTKDEYERHNSYTCEATHKTSTSPIVKSFNRNEC
B1: the “weight loss in animals pre-treated with Liraglutide” value with C57BL/6 DIO male mice is listed as “weight loss effect of anti-GIPR can be observed in animals already receiving GLP-1R agonist therapy”. Also, in data set [3] (FIG. 2A), the “GIP induced glucose levels” value is “Antagonized”. In addition, in data set [3] (FIG. 2B), the “GIP induced insulin secretion” value was “antagonizes GIP induced insulin secretion”. In addition, the fasting glucose levels entry in the data set on C57BL/6 DIO mice [4] (4 hours fast, FIG. 7) was “lower fasting glucose levels”. Moreover, the body weight gain result in the data set with C57BL/6 DIO mice [4] (FIG. 4) is reported as “Reduced Body Weight Gain”. The fat mass entry in the data set on C57BL/6 DIO mice [4] (FIG. 5) is given as “lower fat mass”. The “epididymal white adipose tissue weights” value in the data set on C57BL/6 DIO mice [4] (FIG. 6) is “lower epididymal white adipose tissue weights”. For the same molecule, in the data set on C57BL/6 DIO mice [4] (FIG. 8), the insulin levels entry is “lower insulin levels”. Moreover, in the data set on C57BL/6 DIO mice [4] (FIG. 10A), the serum total cholesterol result is reported as “lower serum total cholesterol”. The serum triglycerides entry in the data set with C57BL/6 DIO mice [4] (FIG. 10B) was “Lower”. In addition, the “hepatocyte microvesicular change and corresponding lipid accumulation” value in the data set with C57BL/6 DIO mice [4] (FIG. 11) is “reduction in hepatocyte microvesicular change and corresponding lipid accumulation”. Also, in the data set on C57BL/6 DIO mice [4] (FIG. 12A), the liver weight entry is on record as “reduced liver weight”. In addition, the liver triglyceride content entry in the data set on C57BL/6 DIO mice [4] (FIG. 12B) is given as “reduced”. For the same molecule, the “inflammation and infiltrating macrophages surrounding adipocytes in epididymal white adipose tissue” value in the data set on C57BL/6 DIO mice [4] (FIG. 13) is “reduced inflammation and reduced infiltrating macrophages cells surrounding adipocytes”. Besides, in the data set on C57BL/6 DIO mice [4] (glucose 1 g/kg i.p., FIG. 9), the “glucose tolerance (IPGTT)” value is “improved glucose tolerance”. In addition, in the data set on C57BL/6 DIO mice [1], the “effect on fat mass loss of the combination GIPR Ab 2.63.1 with GLP-1R agonist (Liraglutide, Dulaglutide or Exendin IV)” value is on record as “synergistic effect” and the “effect on weight loss of the combination GIPR Ab 2.63.1 with GLP-1R agonist (Liraglutide, Dulaglutide or Exendin IV)” value is on record as “synergistic effect”. Also, in the data set on C57BL/6 DIO mice [5], the body weight result is recorded as “prevented weight gain”, the glucose levels result is “lowered glucose” and the insulin levels entry is on record as “lowered”.

Values taken from patent publication US10294303B2, “Method of treating or ameliorating metabolic disorders using binding proteins for gastric inhibitory peptide receptor (GIPR) in combination with GLP-1 agonists” (AMGEN INC., priority 2015, dated 2019).
